# Assay results from publication PMC7737771, “In‐depth interrogation of protein thermal unfolding data with MoltenProt” (Protein Science : A Publication of the Protein Society, 2020).
# B1: α‐actinin‐2 rod domain (domain or fragment, UniProt P35609 274-746, looked up)
# chain: AVNQENERLMEEYERLASELLEWIRRTIPWLENRTPEKTMQAMQKKLEDFRDYRRKHKPPKVQEKCQLEINFNTLQTKLRISNRPAFMPSEGKMVSDIAGAWQRLEQAEKGYEEWLLNEIRRLERLEHLAEKFRQKASTHETWAYGKEQILLQKDYESASLTEVRALLRKHEAFESDLAAHQDRVEQIAAIAQELNELDYHDAVNVNDRCQKICDQWDRLGTLTQKRREALERMEKLLETIDQLHLEFAKRAAPFNNWMEGAMEDLQDMFIVHSIEEIQSLITAHEQFKATLPEADGERQSIMAIQNEVEKVIQSYNIRISSSNPYSTVTMDELRTKWDKVKQLVPIRDQSLQEELARQHANERLRRQFAAQANAIGPWIQNKMEEIARSSIQITGALEDQMNQLKQYEHNIINYKNNIDKLEGDHQLIQEALVFDNKHTNYTMEHIRVGWELLLTTIARTINEVETQILTRD
# notes: α-actinin-2, rod domain, residues 274-746; Detailed purification protocols are to be published elsewhere (Mlynek et al., in preparation); PDB 4D1E is the longer α-actinin-2 dimer, of which the rod domain is a stretch; also called rod domain of α‐actinin‐2
# B2: Δ91‐FATZ‐1 (domain or fragment, UniProt Q9NP98 92-299, looked up)
# chain: PTVGGQLGTAGQGFSYSKSNGRGGSQAGGSGSAGQYGSDQQHHLGSGSGAGGTGGPAGQAGRGGAAGTAGVGETGSGDQAGGEGKHITVFKTYISPWERAMGVDPQQKMELGIDLLAYGAKAELPKYKSFNRTAMPYGGYEKASKRMTFQMPKFDLGPLLSEPLVLYNQNLSNRPSFNRTPIPWLSSGEPVDYNVDIGIPLDGETEEL
# notes: FATZ-1 (calsarcin-2/myozenin-1) with a deletion of the 91 N-terminal residues; Detailed purification protocols are to be published elsewhere (Mlynek et al., in preparation); also called FATZ‐1 lacking the first 91 residues; calsarcin‐2
# Experiments:
# [1] = biological target: the molecule itself; experiment: SEC-MALS; Superdex‐200 10/300 Increase; 20 mM Tris–HCl pH 7.5, 100 mM NaCl, 50 mM arginine, 50 mM glutamic acid, 0.5 mM PMSF, 1 mM EDTA, 1 mM β‐mercaptoethanol; 100 μl injected at 2-4 mg/ml; 20°C; 0.5 ml/min
# [2] = biological target: B1; experiment: cell-based or functional assay
# [3] = biological target: B1; experiment: SEC-MALS; Superdex‐200 10/300 Increase; 20 mM Tris–HCl pH 7.5, 100 mM NaCl, 50 mM arginine, 50 mM glutamic acid, 0.5 mM PMSF, 1 mM EDTA, 1 mM β‐mercaptoethanol; 100 μl injected at 2-4 mg/ml; 20°C; 0.5 ml/min; conditions: both partners purified
Binder,stoichiometry N [1],"ΔGu°′ of the complex against ΔGu°′ of the rod domain alone, thermal unfolding (NanoDSF) [2]",stoichiometry N [3]
B1,2,–,–
B2,–,~2 fold,2 Δ91‐FATZ‐1 molecules per rod domain dimer
